Experimental data from publication doi:10.1101/2023.09.21.558797, “Dynamin 1xA interacts with Endophilin A1 via its spliced long C-terminus for ultrafast endocytosis” (bioRxiv, 2023).
No end group written: not given here.

T1: GST-Dyn1xA-PRR (full-length proline-rich region of Dynamin 1 splice variant xA, 746-864) (rat, UniProt P21575 746-864)
T1 construct: cloned in pGEX-6P-1; used on beads in pull-downs and in solution in the ELISA; also called PRD
T1 sequence (looked up): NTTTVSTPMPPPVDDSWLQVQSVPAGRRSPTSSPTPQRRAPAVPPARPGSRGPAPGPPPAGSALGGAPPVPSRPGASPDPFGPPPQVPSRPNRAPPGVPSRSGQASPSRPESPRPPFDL

T2: Dyn1xA-PRR 746-864 (GST tag removed) (rat, UniProt P21575 746-864, 15N-labelled (or 15N, 13C labelled) for NMR)
T2 construct: the SEC-MALS mass (19.2 kDa for the 1:1 complex) fits the cleaved forms; also called PRD; source: E. coli JM109, GST tag proteolytically cleaved, purified by gel filtration
T2 sequence (looked up): T1 sequence (looked up)

B1: His-tagged mouse Endophilin A1 SH3 domain (domain or fragment)
chain: not shown
notes: Endophilin A1, mouse, SH3 domain; the methods describe only a GST-Endophilin A1-SH3 construct (mouse, 292-352); no His-tagged construct is described there; also called His-tagged mouse Endophilin-SH3 domain
B2: Endophilin A1 SH3 domain (GST tag removed) (domain or fragment)
chain: not shown
notes: Endophilin A1, mouse, SH3 domain, amino acids 292-352 by the methods (the results say residues D291-H352); plasmid from Peter McPherson (McGill University); unlabelled in the titrations; also called endophilin SH3; Endophilin A SH3; source: E. coli JM109, GST tag proteolytically cleaved, purified by gel filtration
B3: GST-Dyn1xA 746-798 (domain or fragment, rat, UniProt P21575 746-798, looked up)
chain: NTTTVSTPMPPPVDDSWLQVQSVPAGRRSPTSSPTPQRRAPAVPPARPGSRGP
notes: Dynamin 1, rat, N746 to P798 of the PRR, common to splice variants xA and xB; also called phosphobox-1 peptide
B4: Dyn1xA 746-798 (GST tag removed) (domain or fragment, rat, UniProt P21575 746-798, looked up)
chain: B3 chain
modifications: also: 15N-labelled (13C/15N for assignment)
notes: Dynamin 1, rat, N746 to P798 of the PRR; source: E. coli JM109, GST tag proteolytically cleaved, purified by gel filtration
B5: GST-Dyn1xA 806-864 (domain or fragment, rat, UniProt P21575 806-864, looked up)
chain: GSALGGAPPVPSRPGASPDPFGPPPQVPSRPNRAPPGVPSRSGQASPSRPESPRPPFDL
notes: Dynamin 1 splice variant xA, rat, G806 to L864
B6: Dyn1xA 806-864 (GST tag removed) (domain or fragment, rat, UniProt P21575 806-864, looked up)
chain: B5 chain
modifications: also: 15N-labelled (13C/15N for assignment)
notes: Dynamin 1 splice variant xA, rat, G806 to L864; source: E. coli JM109, GST tag proteolytically cleaved, purified by gel filtration

Columns and labels:
Conditions in all cases: both partners purified
[1] = molecular target: T1, GST-Dyn1xA-PRR (full-length …); assay: ELISA; His-tagged mouse Endophilin A1 SH3 domain coated on a 96-well plate, overlaid with increasing concentrations of GST-tagged Dyn1-PRR peptides; two experiments of four replicates
[2] = molecular target: T2, Dyn1xA-PRR 746-864 (GST tag removed); assay: SEC-MALS; Superdex 75 10/300 GL, 20 mM HEPES, 100 mM NaCl, 1 mM DTT, 1 mM PMSF, pH 7.2; complex at 0.5 mg and diluted to one third (0.167 mg)
[3] = molecular target: B1; assay: ELISA; His-tagged mouse Endophilin A1 SH3 domain coated on a 96-well plate, overlaid with increasing concentrations of GST-tagged Dyn1-PRR peptides; two experiments of four replicates
[4] = molecular target: B2; assay: NMR titration; 1H-15N HSQC chemical shift perturbation; unlabelled Endophilin A1 SH3 titrated into 15N-labelled Dyn1 peptide; 298 K, 600 MHz

Sequence of His-tagged mouse Endophilin A1 SH3 domain (Q62420 290-349): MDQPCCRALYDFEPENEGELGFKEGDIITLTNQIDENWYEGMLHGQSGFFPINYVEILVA

Binder: B1
Kd [1]: 44 nM

Binder: B2
stoichiometry N [2]: 1

Binder: B3
fold weaker affinity than xA_(746–864) [3]: 9 fold

Binder: B4
binding result [4]: binds

Binder: B5
fold difference in affinity from xA_(746–864) [3]: < 2 fold
fold higher affinity than xA_(746–798) [3]: 5 fold

Binder: B6
binding result [4]: binds
